B1: cIL-13Rα1-cFc-YTE: cIL-13Rα1-cIgGB-Fc with L18Y/A20T/T22E half-life substitutions, SEQ ID NO: 9 (protein)
chain: GGVAAPTETQPPVTNLSVSVENLCTVIWTWDPPEGASPNCTLRYFSHFDNKQDKKIAPETHRSKEVPLNERICLQVGSQCSTNESDNPSILVEKCTPPPEGDPESAVTELQCVWHNLSYMKCTWLPGRNTSPDTNYTLYYWHSSLGKILQCEDIYREGQHIGCSFALTNLKDSSFEQHSVQIVVKDNAGKIRPSFNIVPLTSHVKPDPPHIKRLFFQNGNLYVQWKNPQNFYSRCLSYQVEVNNSQTETNDIFYVEEAKCQNSEFEGNLEGTICFMVPGVLPDTLNTVRIRVRTNKLCYEDDKLWSNWSQAMSIGENTDPTPKRENGRVPRPPDCPKCPAPEMLGGPSVFIFPPKPKDTLYITREPEVTCVVVDLDPEDPEVQISWFVDGKQMQTAKTQPREEQFNGTYRVVSVLPIGHQDWLKGKQFTCKVNNKALPSPIERTISKARGQAHQPSVYVLPPSREELSKNTVSLTCLIKDFFPPDIDVEWQSNGQQEPESKYRTTPPQLDEDGSYFLYSKLSVDKSRWQRGDTFICAVMHEALHNHYTQESLSHSPGK
modifications: homodimer
B2: cIL-13Rα2-cFc-YD: cIL-13Rα2-cIgGB-Fc with L18Y/T22D half-life substitutions, SEQ ID NO: 13 (protein)
chain: SMLSNAEIKVNPPQDFEIVDPGYLGYLSLQWQPPLFPDNFKECTIEYELKYRNIDSENWKTIITKNLHYKDGFDLNKGIEAKINTLLPAQCTNGSEVRSSWAETTYWTSPQGNRETKIQDMDCVYYNWQYLVCSWKPGMGVHFDTNYQLFYWYEGLDHSAECTDYIKVNGKNMGCRFPYLESSDYKDFYICVNGSSESQPIRPSYFIFQLQNIVKPMPPDYLSLTVKNSEEINLKWNMPKGPIPAKCFIYEIEFTEDGTTWVTTTVENEIQITRTSNESQKLCFLVRSKVNIYCSDDGIWSEWSDEQCWKGDIWKETPKRENGRVPRPPDCPKCPAPEMLGGPSVFIFPPKPKDTLYIARDPEVTCVVVDLDPEDPEVQISWFVDGKQMQTAKTQPREEQFNGTYRVVSVLPIGHQDWLKGKQFTCKVNNKALPSPIERTISKARGQAHQPSVYVLPPSREELSKNTVSLTCLIKDFFPPDIDVEWQSNGQQEPESKYRTTPPQLDEDGSYFLYSKLSVDKSRWQRGDTFICAVMHEALHNHYTQESLSHSPGK
modifications: homodimer
B3: cIL-13Rα2-cFc: homodimer of canine IL-13Rα2 ECD, IgGB hinge region and IgGB cFc fusion protein, SEQ ID NO: 7 (protein)
chain: SMLSNAEIKVNPPQDFEIVDPGYLGYLSLQWQPPLFPDNFKECTIEYELKYRNIDSENWKTIITKNLHYKDGFDLNKGIEAKINTLLPAQCTNGSEVRSSWAETTYWTSPQGNRETKIQDMDCVYYNWQYLVCSWKPGMGVHFDTNYQLFYWYEGLDHSAECTDYIKVNGKNMGCRFPYLESSDYKDFYICVNGSSESQPIRPSYFIFQLQNIVKPMPPDYLSLTVKNSEEINLKWNMPKGPIPAKCFIYEIEFTEDGTTWVTTTVENEIQITRTSNESQKLCFLVRSKVNIYCSDDGIWSEWSDEQCWKGDIWKETPKRENGRVPRPPDCPKCPAPEMLGGPSVFIFPPKPKDTLLIARTPEVTCVVVDLDPEDPEVQISWFVDGKQMQTAKTQPREEQFNGTYRVVSVLPIGHQDWLKGKQFTCKVNNKALPSPIERTISKARGQAHQPSVYVLPPSREELSKNTVSLTCLIKDFFPPDIDVEWQSNGQQEPESKYRTTPPQLDEDGSYFLYSKLSVDKSRWQRGDTFICAVMHEALHNHYTQESLSHSPGK
modifications: homodimer

Biological target: T1, canine IL-13 (cIL-13) (Canis lupus familiaris, UniProt Q9N0W9)
T1 sequence (Q9N0W9 19-131): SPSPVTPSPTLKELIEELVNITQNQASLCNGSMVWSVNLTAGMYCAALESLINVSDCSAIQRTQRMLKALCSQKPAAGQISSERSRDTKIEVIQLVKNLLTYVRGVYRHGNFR
Assay: Binding kinetics of cFc fusion proteins to canine IL-13 (OCTET HTX)
Conditions: for ka / kdis: Table 4, cIL-13; for ka: association rate constant; for kdis: dissociation rate constant
Experimental: The binding constants for the cFc fusion proteins provided in Tables 3 and 4 below, were determined using OCTET® HTX. All kinetics measurements were performed by OCTET® HTX using SA® biosensors and DATA ACQUISITION® 12.0 software. 10 μg/mL of biotin-labeled antigen, either canine IL-4 (cIL-4) or canine IL-13 (cIL-13) were loaded onto the SAR biosensors for 120 seconds. Next, the biosensors were placed into 1×pH 7.0 TBS/Casein buffer for 60 seconds for the blocking phase. For the association phase, antigen loaded biosensors were placed into 2-fold serial dilutions from 1 μM down to 15.6 nM of the wild-type, the bispecific, or the FcRn-mutant receptor Fc-fusions that recognized the cIL-4 or cIL-13 antigen in 1×pH 7.0 TBS/Casein buffer for 30 seconds. The last well was buffer alone and that sensor was used for reference sensor subtraction. Finally, the biosensors were placed into 1×pH 7.0 TBS/Casein buffer for 120 seconds for the dissociation phase. The results were then analyzed using Data Analysis 12.0 software and the curves were fitted using a 1:1 binding model.

Molecule	decrease in the affinity for cIL-13 relative to unmodified cIL-13Rα1-cFc	ka	kdis	Kd (approximate values, read-out: binding constant (KD) with cIL-13)
B1	about 4 fold	66500 M⁻¹ s⁻¹	0.0011 s⁻¹	20 nM
B2	–	1.15e+06 M⁻¹ s⁻¹	5.07e-07 s⁻¹	–
B3	–	1e+06 M⁻¹ s⁻¹	7.45e-07 s⁻¹	–
